In publication PMC10143992, “Interkingdom Signaling of the Insect Pathogen Photorhabdus luminescens with Plants Via the LuxR solo SdiA” (Microorganisms, 2023):
Values belong to the molecule of their own block, whether it stands above or below them.

Experiments:
SdiA (6His-SdiA) = target: T1, SdiA (6His-SdiA) (Photorhabdus laumondii, UniProt Q7N9K5); assay: nanoDSF thermal shift (intrinsic Trp fluorescence […] nm); type: binding; conditions: 10 nM ligand; 0.3 mg/mL SdiA; 1.5 °C/min; versus solvent control
T1 construct: gene plu0320
T1 sequence (Q7N9K5 entry or part of it): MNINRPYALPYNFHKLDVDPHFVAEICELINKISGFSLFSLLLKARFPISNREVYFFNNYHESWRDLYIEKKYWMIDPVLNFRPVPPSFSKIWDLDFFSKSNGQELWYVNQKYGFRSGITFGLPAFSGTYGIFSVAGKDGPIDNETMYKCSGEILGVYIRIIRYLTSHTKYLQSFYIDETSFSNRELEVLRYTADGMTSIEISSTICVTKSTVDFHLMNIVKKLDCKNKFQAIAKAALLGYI

[1] = system: T2, SdiA (LuxR solo, 6His-SdiA) (Photorhabdus luminescens DJC), ORF:60ed44fe; assay: SPR; conditions: SPR Biacore T200, SA chip, HBS-EP+ (10 mM HEPES pH 7.4, 150 mM NaCl, 3 mM EDTA, 0.005% Tween-20), SdiA 1.5625-200 nM, 30 uL/min, 1:1 fit; temperature not …
T2 sequence: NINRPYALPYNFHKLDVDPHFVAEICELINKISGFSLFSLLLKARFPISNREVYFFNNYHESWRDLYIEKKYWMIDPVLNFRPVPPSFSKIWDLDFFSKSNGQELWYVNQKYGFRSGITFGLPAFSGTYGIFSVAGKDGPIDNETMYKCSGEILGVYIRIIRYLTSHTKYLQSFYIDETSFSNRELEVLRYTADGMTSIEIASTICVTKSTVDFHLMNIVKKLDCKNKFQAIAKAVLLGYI

[2] = system: SdiA (LuxR solo, 6His-SdiA) (Photorhabdus luminescens DJC); assay: SPR; conditions: SPR Biacore T200, SA chip, HBS-EP+ (10 mM HEPES pH 7.4, 150 mM NaCl, 3 mM EDTA, 0.005% Tween-20), SdiA 1.5625-200 nM, 30 uL/min, 1:1 fit, temperature not …

DTM (SdiA (6His-SdiA)): −3.9 °C
Molecule: CCCC(=O)N[C@H]1CCOC1=O [C4-AHL]

DTM (SdiA (6His-SdiA)): +1.6 °C
Molecule: CCCCCCCCCCCC(=O)N[C@H]1CCOC1=O [C12-AHL]

Molecule: GACACCTCTTTACATATTTAAACTATTTATTGGGAATCGAAAGGTTATTTTGCTTACTCATTATTATTCTAATAACTTTCTTTTTATATAATTAACTATTAAAGTTGAAACAGCTACTGGGATAAATCATAGTTTATATGGGAAAATTACTCATATATTTATTAGGTATTGCTTCATATAG (double strand) [PaidA promoter fragment]
Kd [1]: 4.4 nM

Molecule: GTCATTATTCGCTGTTCACTCATCTTTTAATGGCACAATAAGCCCTGACTTTTTACTTTAATTACCCGCTTTAGATCGAGAGGGCTATGTTAGGGTGGCAGTCTAAAAATATGCCGTATATTACTTTGGGTTAATATGGCATTGAATGGCGTAGGTTATAGGGTGGTTTAACACGAGGTTTTT (double strand) [PfliE promoter fragment]
binding [1]: no binding

Molecule: PaidA promoter fragment
Kd ([2]; 3.3% (v/v) plant root exudate (PRE), ka 8.2e4 /M/s, kd 1.1e-3 /s): 13.3 nM
Kd ([2]; no ligand, ka 3.9e5 /M/s, kd printed 1.7 x 103 /s (1.7e-3 from Kd)): 4.4 nM

Molecule: PsdiA promoter fragment
Kd ([2]; 3.3% (v/v) plant root exudate (PRE), ka 1.8e5 /M/s, kd 2.0e-2 /s): 109 nM
Kd ([2]; no ligand, ka 1.1e5 /M/s, kd 3.1e-3 /s): 27.4 nM
